From PMC5665175 (Immunity, 2017)

B1: 6xHis-Sumo-Imd(31-167) (domain or fragment, D. melanogaster, UniProt Q7K4Z4 31-167, looked up)
chain: AAPVDDNEPDNNNSGALALPSTAGTPTASSDLTESVLRELSDPNYNSMDVVHSANIPGTLSNVQTNNTMNVHSAQQQVVMNFSNANNLHFGSVYNFNQNLSACSSRKGSTSTAEESVASPDGKPRASATRKTVSIVA
B2: 6xHis-Sumo-Imd(31-273) Δ144-177 (domain or fragment, D. melanogaster, UniProt Q7K4Z4 31-273, looked up)
chain: AAPVDDNEPDNNNSGALALPSTAGTPTASSDLTESVLRELSDPNYNSMDVVHSANIPGTLSNVQTNNTMNVHSAQQQVVMNFSNANNLHFGSVYNFNQNLSACSSRKGSTSTARLLDVVSTHLGEGWKQVMRDLGMSEGQIDQAIIDHQMHGNIREVIYQLLLQWIRSSADGVATVGRLTTLLWESQHRDCVQRMKLVWKALEKRKTNS
B3: 6xHis-Sumo-Imd(31-273) (domain or fragment, D. melanogaster, UniProt Q7K4Z4 31-273, looked up)
chain: AAPVDDNEPDNNNSGALALPSTAGTPTASSDLTESVLRELSDPNYNSMDVVHSANIPGTLSNVQTNNTMNVHSAQQQVVMNFSNANNLHFGSVYNFNQNLSACSSRKGSTSTAEESVASPDGKPRASATRKTVSIVAMMQSQEEPDVRLLDVVSTHLGEGWKQVMRDLGMSEGQIDQAIIDHQMHGNIREVIYQLLLQWIRSSADGVATVGRLTTLLWESQHRDCVQRMKLVWKALEKRKTNS
B4: 6xHis-Sumo-Imd(31-273) Δ114-121 (domain or fragment, D. melanogaster, UniProt Q7K4Z4 31-273, looked up)
chain: AAPVDDNEPDNNNSGALALPSTAGTPTASSDLTESVLRELSDPNYNSMDVVHSANIPGTLSNVQTNNTMNVHSAQQQVVMNFSSVYNFNQNLSACSSRKGSTSTAEESVASPDGKPRASATRKTVSIVAMMQSQEEPDVRLLDVVSTHLGEGWKQVMRDLGMSEGQIDQAIIDHQMHGNIREVIYQLLLQWIRSSADGVATVGRLTTLLWESQHRDCVQRMKLVWKALEKRKTNS
B5: 6xHis-Sumo-Imd(31-273) Δ76-109 (domain or fragment, D. melanogaster, UniProt Q7K4Z4 31-273, looked up)
chain: AAPVDDNEPDNNNSGALALPSTAGTPTASSDLTESVLRELSDPNYMNFSNANNLHFGSVYNFNQNLSACSSRKGSTSTAEESVASPDGKPRASATRKTVSIVAMMQSQEEPDVRLLDVVSTHLGEGWKQVMRDLGMSEGQIDQAIIDHQMHGNIREVIYQLLLQWIRSSADGVATVGRLTTLLWESQHRDCVQRMKLVWKALEKRKTNS
B6: 6xHis-Sumo-Imd(3-273) (domain or fragment, D. melanogaster, UniProt Q7K4Z4 3-273, looked up)
chain: KLRNLLPTIFGGKEAQNPTPVEGRLEKDAAPVDDNEPDNNNSGALALPSTAGTPTASSDLTESVLRELSDPNYNSMDVVHSANIPGTLSNVQTNNTMNVHSAQQQVVMNFSNANNLHFGSVYNFNQNLSACSSRKGSTSTAEESVASPDGKPRASATRKTVSIVAMMQSQEEPDVRLLDVVSTHLGEGWKQVMRDLGMSEGQIDQAIIDHQMHGNIREVIYQLLLQWIRSSADGVATVGRLTTLLWESQHRDCVQRMKLVWKALEKRKTNS

Biological target: the molecule itself
Assay: SDD-AGE

Binding result, binds:
B1
B2
B3
B4
B5

Biological target: the molecule itself
Assay: X-ray diffraction from fibrils

Binding result, binds:
NVHSAQQQVVMNFSNANNLHFGSVYN (domain or fragment, D. melanogaster, UniProt Q7K4Z4 100-125, looked up) [6xHis-Sumo-Imd(100-125)]

Biological target: the molecule itself
Assay: SDD-AGE
Remark: another data set of the same source

Binding result, binds:
DLMNSINSIQTLGNVNISNSTNVHIGNVTNINGNIQIIADGLTQNRRD (domain or fragment, D. melanogaster, UniProt Q9VXN9 80-127, looked up) [6xHis-Sumo-PGRP-LE(80-127) WT]
DLMNSINSIQTLGNVNASNSTNVHIGNVTNINGNIQIIADGLTQNRRD (domain or fragment, D. melanogaster, UniProt Q9VXN9 80-127, looked up) [6xHis-Sumo-PGRP-LE(80-127) I96A]
DLMNSINSIQTLGNVNISNSTNVHAGNVTNINGNIQIIADGLTQNRRD (domain or fragment, D. melanogaster, UniProt Q9VXN9 80-127, looked up) [6xHis-Sumo-PGRP-LE(80-127) I104A]
DLMNSINSIQTLGNVNISNSTNVHIGNVTNINGNIQAIADGLTQNRRD (domain or fragment, D. melanogaster, UniProt Q9VXN9 80-127, looked up) [6xHis-Sumo-PGRP-LE(80-127) I116A]
DLMNSINSIQTLGNVNISNATNVHIGNVTNINGNIQIIADGLTQNRRD (domain or fragment, D. melanogaster, UniProt Q9VXN9 80-127, looked up) [6xHis-Sumo-PGRP-LE(80-127) S99A]
ATQGIGSIALTNSTDVTFGDKHFYAGPVTIQQFLIDNRDKWK (domain or fragment, D. melanogaster, UniProt Q9GNK5 201-242, looked up) [6xHis-Sumo-PGRP-LC(201-242) E225A]
ATQGIGSIALTNSTAVTFGDKHFYEGPVTIQQFLIDNRDKWK (domain or fragment, D. melanogaster, UniProt Q9GNK5 201-242, looked up) [6xHis-Sumo-PGRP-LC(201-242) D215A]

Biological target: the molecule itself
Assay: ThT fluorescence of amyloid polymerisation

Binding result, binds:
B6

Biological target: the molecule itself
Assay: SEC

Binding result, binds:
ATQGIGSIALTNSTDVTFGDKHFYEGPVTIQQFLIDNRDKWK (domain or fragment, D. melanogaster, UniProt Q9GNK5 201-242, looked up) [6xHis-Sumo-PGRP-LC(201-242) WT]
